Measured values taken from publication PMC9352680, “A comprehensive thermodynamic model for RNA binding by the Saccharomyces cerevisiae Pumilio protein PUF4”.
Substitutions are numbered along the chain they refer to. Numbers in names are those of the source.

T1: PUF4 RNA-binding domain (Saccharomyces cerevisiae, UniProt P25339 537-888)
T1 sequence: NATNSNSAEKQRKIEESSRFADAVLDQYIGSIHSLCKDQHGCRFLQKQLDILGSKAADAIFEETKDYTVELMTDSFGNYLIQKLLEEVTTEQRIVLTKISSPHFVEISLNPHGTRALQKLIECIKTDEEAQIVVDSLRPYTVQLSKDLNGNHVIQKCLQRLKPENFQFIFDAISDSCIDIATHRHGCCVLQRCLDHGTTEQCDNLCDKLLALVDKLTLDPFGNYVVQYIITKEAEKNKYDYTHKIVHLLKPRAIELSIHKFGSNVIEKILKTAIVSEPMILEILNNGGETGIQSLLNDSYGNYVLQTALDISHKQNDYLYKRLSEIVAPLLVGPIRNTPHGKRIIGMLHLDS

B1: Id_ii_S4_P3E.2_K3.1_C3.2_[C-2T]_H3.1_A3.1_F3.1_T3.2_[T9C]_[A10T] (ssRNA)
RNA: UUUGACAACUGAUCGUUCUUUCUUUUGUAUAUACUUUCUUUCUCGAUCAGUUGUCUUU
B2: Id_ii_S4_P3E.2_K3.1_C3.2_[C-2A]_[T-1A]_H3.1_A3.1_F3.1_T3.2_[A10G] (ssRNA)
RNA: B1 RNA with U24A, U25A, C34U, U35G
B3: Id_ii_S4_P3E.2_K3.1_C3.2_[C-2A]_[T-1C]_H3.1_A3.1_F3.1_T3.2_[T9A]_[A10T] (ssRNA)
RNA: B1 RNA with U24A, U25C, C34A
B4: Id_ii_S4_P3E.2_K3.1_C3.2_[T-1G]_H3.1_A3.1_F3.1_T3.2_[A10T] (ssRNA)
RNA: B1 RNA with U24C, U25G, C34U
B5: Id_ii_S4_P3E.2_K3.1_C3.2_[T-1G]_H3.1_A3.1_F3.1_T3.2_[T9A]_[A10G] (ssRNA)
RNA: B1 RNA with U24C, U25G, C34A, U35G
B6: Id_ii_S4_P3E.2_K3.1_C3.2_[C-2A]_[T-1G]_H3.1_A3.1_F3.1_T3.2_[T9A] (ssRNA)
RNA: B1 RNA with U24A, U25G, C34A, U35A
B7: Id_ii_S4_P3E.2_K3.1_C3.2_[C-2A]_[T-1C]_H3.1_A3.1_F3.1_T3.2_[A10C] (ssRNA)
RNA: B1 RNA with U24A, U25C, C34U, U35C
B8: Id_ii_S4_P3E.2_K3.1_C3.2_[C-2A]_H3.1_A3.1_F3.1_T3.2_[A10T] (ssRNA)
RNA: B1 RNA with U24A, C34U
B9: Id_ii_S4_P3E.2_K3.1_C3.2_[C-2A]_[T-1C]_H3.1_A3.1_F3.1_T3.2_[A10T] (ssRNA)
RNA: B1 RNA with U24A, U25C, C34U
B10: Id_ii_S4_P3E.2_K3.1_C3.2_[C-2T]_H3.1_A3.1_F3.1_T3.2_[T9A]_[A10C] (ssRNA)
RNA: B1 RNA with C34A, U35C
B11: Id_ii_S4_P3E.2_K3.1_C3.2_[C-2A]_[T-1A]_H3.1_A3.1_F3.1_T3.2_[T9A]_[A10G] (ssRNA)
RNA: B1 RNA with U24A, U25A, C34A, U35G
B12: Id_ii_S4_P3E.2_K3.1_C3.2_[T-1G]_H3.1_A3.1_F3.1_T3.2_[T9A]_[A10C] (ssRNA)
RNA: B1 RNA with U24C, U25G, C34A, U35C
B13: Id_ii_S4_P3E.2_K3.1_C3.2_[C-2A]_H3.1_A3.1_F3.1_T3.2_[T9A]_[A10G] (ssRNA)
RNA: B1 RNA with U24A, C34A, U35G
B14: Id_ii_S4_P3E.2_K3.1_C3.2_[C-2A]_[T-1G]_H3.1_A3.1_F3.1_T3.2_[T9A]_[A10G] (ssRNA)
RNA: B1 RNA with U24A, U25G, C34A, U35G
B15: Id_ii_S4_P3E.2_K3.1_C3.2_[C-2A]_[T-1A]_H3.1_A3.1_F3.1_T3.2_[T9A]_[A10C] (ssRNA)
RNA: B1 RNA with U24A, U25A, C34A, U35C
B16: Id_ii_S4_P3E.2_K3.1_C3.2_[C-2T]_H3.1_A3.1_F3.1_T3.2_[T9A] (ssRNA)
RNA: B1 RNA with C34A, U35A
B17: Id_ii_S4_P3E.2_K3.1_C3.2_[C-2T]_H3.1_A3.1_F3.1_T3.2_[A10T] (ssRNA)
RNA: B1 RNA with C34U
B18: Id_ii_S4_P3E.2_K3.1_C3.2_[C-2A]_H3.1_A3.1_F3.1_T3.2_[A10G] (ssRNA)
RNA: B1 RNA with U24A, C34U, U35G
B19: Id_ii_S4_P3E.2_K3.1_C3.2_[C-2A]_[T-1C]_H3.1_A3.1_F3.1_T3.2_[A10G] (ssRNA)
RNA: B1 RNA with U24A, U25C, C34U, U35G
B20: Id_ii_S4_P3E.2_K3.1_C3.2_[C-2T]_H3.1_A3.1_F3.1_T3.2_[A10C] (ssRNA)
RNA: B1 RNA with C34U, U35C
B21: Id_ii_S4_P3E.2_K3.1_C3.2_[C-2A]_H3.1_A3.1_F3.1_T3.2_[T9A] (ssRNA)
RNA: B1 RNA with U24A, C34A, U35A
B22: Id_ii_S4_P3E.2_K3.1_C3.2_[T-1G]_H3.1_A3.1_F3.1_T3.2_[T9C]_[A10C] (ssRNA)
RNA: B1 RNA with U24C, U25G, U35C
B23: Id_ii_S4_P3E.2_K3.1_C3.2_[C-2T]_H3.1_A3.1_F3.1_T3.2 (ssRNA)
RNA: B1 RNA with C34U, U35A
B24: Ib_S1_P5E.1_K5.1_C5.1_H5.1_[T3A]_[A4C]_A5.1_F5.1_T5.1 (ssRNA)
RNA: UCUCUUUGACUUAUUAUCUCUU
B25: Ib_S1_P5E.1_K5.1_C5.1_H5.1_[T1C]_A5.1_[T5C]_F5.1_T5.1 (ssRNA)
RNA: UCUCUUCGUACUAUUAUCUCUU

target: T1, PUF4 RNA-binding domain; assay: Mg; RNA-MaP; 20 mM Na-HEPES pH 7.4, 30 mM KOAc, 0.75 mM MgCl2, 0.1% Tween-20, 5% glycerol, 0.1 mg/mL BSA, 2 mM DTT; 25 C; 0.0125-409.6 nM protein; details: tags: N-His6-TEV cleaved; C-SNAP kept, Cy3B-labelled; label: tethered on chip by stalled RNA polymerase

Point of comparison: B8, Kd 2.72 nM. Against it:
- B1 — within 1.5-fold, 2.81 nM
- B2 — 2.8-fold higher, 7.52 nM
- B3 — within 1.5-fold, 2.65 nM
- B4 — 1.8-fold lower, 1.48 nM
- B5 — 2.5-fold higher, 6.69 nM
- B6 — 4-fold higher, 10.8 nM
- B7 — within 1.5-fold, 2.26 nM
- B9 — within 1.5-fold, 2.68 nM
- B10 — 1.6-fold higher, 4.42 nM
- B11 — 4.9-fold higher, 13.3 nM
- B12 — 3.2-fold higher, 8.59 nM
- B13 — 3.7-fold higher, 10.2 nM
- B14 — 3.4-fold higher, 9.13 nM
- B15 — 3.4-fold higher, 9.36 nM
- B16 — 2.4-fold higher, 6.6 nM
- B17 — 1.6-fold lower, 1.75 nM
- B18 — 3.9-fold higher, 10.6 nM
- B19 — 14-fold higher, 39.2 nM
- B20 — 1.5-fold lower, 1.81 nM
- B21 — 4.3-fold higher, 11.8 nM
- B22 — 4.2-fold higher, 11.3 nM
- B23 — within 1.5-fold, 2.14 nM
- B24 — higher, > 2300 nM
- B25 — 220-fold higher, 592 nM
